{"source": "paper PMC5709507", "key": {"[1]": {"molecular_target": "endogenous RORα of mouse cerebellar neurons and cerebellum (UniProt P51448)", "sequence (P51448 whole entry)": "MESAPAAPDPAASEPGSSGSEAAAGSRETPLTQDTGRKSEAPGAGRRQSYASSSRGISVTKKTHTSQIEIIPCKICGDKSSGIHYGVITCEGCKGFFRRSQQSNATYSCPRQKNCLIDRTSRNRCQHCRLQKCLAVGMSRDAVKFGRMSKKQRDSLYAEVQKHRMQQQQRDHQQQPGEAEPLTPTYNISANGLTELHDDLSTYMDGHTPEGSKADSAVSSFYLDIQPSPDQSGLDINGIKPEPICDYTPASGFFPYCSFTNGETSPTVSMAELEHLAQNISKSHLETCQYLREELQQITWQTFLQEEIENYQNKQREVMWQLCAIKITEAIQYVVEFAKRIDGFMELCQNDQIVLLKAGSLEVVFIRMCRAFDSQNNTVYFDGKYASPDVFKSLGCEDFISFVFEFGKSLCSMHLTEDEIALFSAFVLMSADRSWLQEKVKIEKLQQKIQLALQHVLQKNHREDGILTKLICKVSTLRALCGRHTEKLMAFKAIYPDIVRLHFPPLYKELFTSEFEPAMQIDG", "test": "co-immunoprecipitation (IP: RORα, IB: FLAG), quantified output band corrected by input band", "settings": "primary cerebellar neurons, transient expression; n = 3; parent: est. 0.42; read off a plot"}, "[2]": {"molecular_target": "endogenous RORα of mouse cerebellar neurons and cerebellum (UniProt P51448)", "test": "co-immunoprecipitation (IP: FLAG, IB: RORα), quantified output band corrected by input band", "settings": "primary cerebellar neurons, transient expression; n = 3; parent: est. 3.2; read off a plot"}}}
{"substance": "Human YAP2 WT (FLAG-YAP2 WT) WQDP>AQDA (first WW domain)", "values": [{"measurement": "response", "setting": "[1]", "result": 0.4}, {"measurement": "response", "setting": "[2]", "result": 3.1}]}
